B1: ES2 89-178 (structured_RNA)
RNA: GGCUGGAACAUCUGUUUCUAGCUUGUUGUUCCUCUUGGCUGCUUUUCAAUUGGAUUUCCUCGAGCAGGUCCCAGGCUUGUCACUGCAGCCA
B2: ES2 1-178 (structured_RNA)
RNA: GGAAGAAGUGAAAUCACUAUAUUUAGAAACGAAUGCUACCAUCCCACCCCAACUACAUGUUCAGGUUAAAUGCGUGCACAUCCUGGUAGCUGGAACAUCUGUUUCUAGCUUGUUGUUCCUCUUGGCUGCUUUUCAAUUGGAUUUCCUCGAGCAGGUCCCAGGCUUGUCACUGCAGCCA
B3: ES2 179-354 (structured_RNA)
RNA: GGGUCUGUUAACCAUCACCACUGGUUCUACAUUAAGUAGGAGGUUCAGGGCUAAGCUAAUAACUCGCCUGCCUUUCUGACUGAUCACAGUGAUGUUCGCCGUGGCCACUUAUCAUGCGGGCUCCUUUGGGAGGGUGCUCUUCUUUGUCUGUACCUCUGGGUGGAAAGGGCGAAUUC
B4: ES2 89-267 (structured_RNA)
RNA: GGCUGGAACAUCUGUUUCUAGCUUGUUGUUCCUCUUGGCUGCUUUUCAAUUGGAUUUCCUCGAGCAGGUCCCAGGCUUGUCACUGCAGCCAGGGUCUGUUAACCAUCACCACUGGUUCUACAUUAAGUAGGAGGUUCAGGGCUAAGCUAAUAACUCGCCUGCCUUUCUGACUGAUCACAG
B5: tRNALeu(CAG) (structured_RNA)
RNA: GCGAAGGUGGCGGAAUUGGUAGACGCGCUAGCUUCAGGUGUUAGUGUCCUUACGGACGUGGGGGUUCAAGUCCCCCCCCUCGCACCAGGAUCU
B6: ES2 1-89 (structured_RNA)
RNA: GGAAGAAGUGAAAUCACUAUAUUUAGAAACGAAUGCUACCAUCCCACCCCAACUACAUGUUCAGGUUAAAUGCGUGCACAUCCUGGUAG
B7: ES2 179-267 (structured_RNA)
RNA: GGGUCUGUUAACCAUCACCACUGGUUCUACAUUAAGUAGGAGGUUCAGGGCUAAGCUAAUAACUCGCCUGCCUUUCUGACUGAUCACAG
B8: xpt-pbuX riboswitch (structured_RNA)
RNA: GGACAUAUAAUCGCGUGGAUAUGGCACGCAAGUUUCUACCGGGCACCGUAAAUGUCCGACUAUGUCC
B9: ES2 267-354 (structured_RNA)
RNA: GGUGAUGUUCGCCGUGGCCACUUAUCAUGCGGGCUCCUUUGGGAGGGUGCUCUUCUUUGUCUGUACCUCUGGGUGGAAAGGGCGAAUUC
B10: env4 Cbl riboswitch (structured_RNA)
RNA: GGUGUUAAAAGCAUAGUGGGAAAGUGACGUGUAAUUCGUCCACAUUACUUGAUGCGGUUAUAGUCCCAAUGCCACCUAACACAAAGUACGAGCAAGGAGACUC
B11: Loop B fully paired RNA duplex (Fig. 3g) (dsRNA)
RNA 1: GGUCUUAUCAUGCGGGC
RNA 2: GCCCGCAUGAUAAGACC
B12: FGF4 enhancer dsDNA (dsDNA)
DNA 1: CGCGCCTTTGTTCCCGGGT
DNA 2: ACCCGGGAACAAAGGCGCG
B13: CCND1_SM6 dsDNA (dsDNA)
DNA 1: CGCGCACTACAGCCCGGGT
DNA 2: ACCCGGGCTGTAGTGCGCG
B14: SOX2 enhancer dsDNA (dsDNA)
DNA 1: CGCGCCATTGTGCCCGGGT
DNA 2: ACCCGGGCACAATGGCGCG
B15: CCND1_SM1 dsDNA (dsDNA)
DNA 1: CGCGCCCTCTTCCCCGGGT
DNA 2: ACCCGGGGAAGAGGGCGCG
B16: DPPA4 enhancer dsDNA (dsDNA)
DNA 1: CGCGCATTTGTACCCGGGT
DNA 2: ACCCGGGTACAAATGCGCG
B17: Loop B fully paired RNA duplex (dsRNA)
RNA 1: GGUCUUAUCAUGCGGGC
RNA 2: GCCCGCAUGAUAAGACC

“And” between values parts separate entries of the source, which are not always exact repeats. Equal entries are not always repeated.

We go through 33 molecules from PMC7156710, “The Sox2 transcription factor binds RNA”.

In general, Kd refers to the equilibrium constant for the complex coming apart. In general, Ki refers to a dissociation constant, usually derived from enzyme kinetics or from competition with a known ligand.

Chain of Sox2-HMG (thrombin cleaved) (P48431 other isoform, or with tags, fused parts or gaps): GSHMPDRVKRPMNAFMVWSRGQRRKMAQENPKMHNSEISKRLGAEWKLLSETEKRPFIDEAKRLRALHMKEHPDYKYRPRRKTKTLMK
Chain of Sox2-HMG (HRV 3C cleaved) (P48431 other isoform, or with tags, fused parts or gaps): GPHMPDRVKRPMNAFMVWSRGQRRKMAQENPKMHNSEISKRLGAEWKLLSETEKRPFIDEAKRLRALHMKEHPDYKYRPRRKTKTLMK

The first data set addresses Sox2-HMG (HRV 3C cleaved) (Homo sapiens, UniProt P48431 38-121). Put plainly: fluorescence anisotropy; 10 mM Tris-HEPES pH 7.5, 8% Ficoll, 0.05% NP-40, 135 mM KCl, 15 mM NaCl, 1 mM DTT, 0.1 mg/mL BSA; 2 nM DNA or 3 nM RNA. As to conditions: protein: recombinant; tags: N-terminal GPHM left after removal of His8-MBP; label: 3'-FAM; hairpin.
Turning to GGUCCAUGCGGGCGAAAGUCUGUAUGGACC (structured_RNA) [13 bp hairpin], the Kd is 83 ± 9.8 nM.
Same read-out and setting: for GGUCCAUGCGAAAGUAUGGACC (structured_RNA) [9 bp hairpin] the value was 54 ± 6.94 nM; for GGUCCGAAAGGACC (structured_RNA) [5 bp hairpin], 71 ± 12.1 nM.

Another data set has as its target Sox2-HMG (thrombin cleaved) (Homo sapiens, UniProt P48431 38-121). The description is as above. As to conditions: protein: recombinant; tags: N-terminal GSHM left after thrombin cleavage of His6; label: 3' fluorescein.
For B1, the Kd is 13.4 ± 1.63 nM.
B2: the Kd is 29.7 ± 4.07 nM.
Still for that read-out and setting: then B3, with 11.2 ± 0.792 nM.
The same measure, in the same setting: for B4 the value was 32.4 ± 6.56 nM; for B5, 26.5 ± 5.62 nM.
As to B6, the Kd was 22.2 ± 3.26 nM.
On the same count and under the same terms, then B7, with 11.5 ± 2.68 nM.
Same read-out and setting: then B8, with 25.4 ± 2.54 nM.
As to B9, the Kd worked out at 10.3 ± 2.03 nM.
On the same count and under the same terms, for B10 the value was 32.4 ± 1.08 nM.

The data set is the same for the next values; noted with them: protein: recombinant; tags: N-terminal GSHM left after thrombin cleavage of His6; label: 3' fluorescein; hairpin.
For GGUCUUAUCAUGCGAAAGUACCUCUGGGACC (structured_RNA) [Loop B, P2(3bp)], the Kd is 11.4 ± 1.46 nM.
The same measure, in the same setting: for GGUAUCAUGCGGAAACGCACCUCUACC (structured_RNA) [Loop B, P1/2(3bp)] the value was 10.6 ± 1.82 nM.
Still for that read-out and setting: for GGAUCAUGCGGGCGAAAGUCUGUACCUCUCC (structured_RNA) [Loop B, P1(3bp)] the value was 10.3 ± 1.94 nM; for GGUUAUCAUGCGGGCGAAAGUCUGUACCUCUGGCC (structured_RNA) [Loop B, P1(5bp)], 12.8 ± 1.84 nM.
As for GGUCUUAUCAUGCGGGCGAAAGUCUGUAUGAUGGGACC (structured_RNA) [Loop B, Fully Paired], the Kd came to 14.7 ± 1.68 nM.
The same measure, in the same setting: for GGUGGGCUCCUUUGGGAGGGUGCUCUUCUUUGUCUACC (structured_RNA) [Loop C] the value was 11.2 ± 1.57 nM; for GGUCGCCGUGGCCACUUCGAAAGGGGUGGAAAGGGCGACC (structured_RNA) [Loop A], 11.3 ± 2.5 nM; for GGUCUUAUCAUGCGCGAAAGUGUACCUCUGGGACC (structured_RNA) [Loop B, P2(5bp)], 9.6 ± 1.32 nM.
Still for that read-out and setting: then GGUCUUAAGGUGCGGGCGAAAGUCUGUACCUCUGGGACC (structured_RNA) [Loop B, Bulge(0+1)], with 10 ± 1.66 nM; and GGUCUUAUCGUGCGGGCGAAAGUCUGUACCUCUGGGACC (structured_RNA) [Loop B, Bulge(2+3)], with 13.6 ± 2.46 nM.
For GGUCUUAUGGUGCGGGCGAAAGUCUGUACCUCUGGGACC (structured_RNA) [Loop B, Bulge(1+2)], the equilibrium dissociation constant (Kd) was determined as 12 ± 1.98 nM.

The data set is the same for the next values; noted with them: protein: recombinant; tags: N-terminal GSHM left after thrombin cleavage of His6; label: 3' fluorescein; hairpin with internal loop.
In the case of GGUCUUAUCAUGCGGGCGAAAGUCUGUACCUCUGGGACC (structured_RNA) [Loop B], the Kd was 10 ± 1.68 nM.

The same data set, now with this note: protein: recombinant; tags: N-terminal GSHM left after thrombin cleavage of His6; label: 3' fluorescein; unstructured.
Regarding AUACAACAUACAACAUACAACAUACAACAUACAACA (ssRNA) [env8 ssRNA], the Kd was 502 ± 123 nM.

Staying with this data set, now noted: protein: recombinant; tags: N-terminal GSHM left after thrombin cleavage of His6; label: FAM on one strand.
On to B11, for which the Kd turned out to be 35.1 ± 2.81 nM.

Still in this data set, the particulars now being: protein: recombinant; tags: N-terminal GSHM left after thrombin cleavage of His6; label: FAM; only (+) strand given.
Regarding B12, the Kd was 0.937 nM and 0.85 nM.
Take B13: the Kd came to 23.8 ± 5.4 nM.
Still for that read-out and setting: for B14 the value was 0.867 ± 0.219 nM; for B15, 9.77 ± 1.07 nM.
Still for that read-out and setting: for B16 the value was 3.4 ± 0.954 nM.

The target of a further data set is Sox2 full length (Homo sapiens, UniProt P48431 1-317). The description is as above. Conditions: protein: recombinant; tags: N-terminal His6 and thrombin site (retained); label: 3' fluorescein; unstructured.
Chain of Sox2 full length (P48431 whole entry): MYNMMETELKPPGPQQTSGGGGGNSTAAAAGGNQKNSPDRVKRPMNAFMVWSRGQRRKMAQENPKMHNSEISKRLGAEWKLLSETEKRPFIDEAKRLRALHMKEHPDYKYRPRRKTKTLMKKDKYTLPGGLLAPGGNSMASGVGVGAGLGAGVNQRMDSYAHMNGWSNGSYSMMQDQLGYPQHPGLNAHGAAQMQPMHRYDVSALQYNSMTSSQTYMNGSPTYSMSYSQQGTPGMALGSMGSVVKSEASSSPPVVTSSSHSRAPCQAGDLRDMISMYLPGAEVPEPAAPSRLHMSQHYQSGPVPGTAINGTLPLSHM
As to AUACAACAUACAACAUACAACAUACAACAUACAACA (ssRNA) [env8 ssRNA], the Kd was found to be 512 ± 76.5 nM.

Still in this data set, the particulars now being: protein: recombinant; tags: N-terminal His6 and thrombin site (retained); label: FAM; only (+) strand given.
With B12, the Kd is 2.1 ± 0.599 nM.

A further data set deals with T1, Sox2-HMG (Homo sapiens, UniProt P48431 40-123). Put plainly: EMSA; 10 mM Tris-HEPES pH 7.5, 135 mM KCl, 15 mM NaCl, 1 mM DTT, 8% Ficoll, 0.05% NP-40, 0.1 mg/mL BSA; 2 nM DNA or 3 nM RNA; room temperature (stated for competition). Conditions: protein: recombinant; tags: N-terminal His6, thrombin cleaved; label: 3' fluorescein; hairpin. Background: Mobility shift assays separate free from complexed probe on a gel.
T1 sequence (P48431 40-123): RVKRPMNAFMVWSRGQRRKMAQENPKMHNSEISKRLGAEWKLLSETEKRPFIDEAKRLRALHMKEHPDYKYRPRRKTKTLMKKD
For GGUCUUAUCAUGCGGGCGAAAGUCUGUAUGAUGGGACC (structured_RNA) [Loop B, Fully Paired], the Kd worked out at 20 ± 4 nM.

For the next data set, the target named is T1, Sox2-HMG. Put plainly: fluorescence anisotropy; 10 mM Tris-HEPES pH 7.5, 135 mM KCl, 15 mM NaCl, 1 mM DTT, 8% Ficoll, 0.05% NP-40, 0.1 mg/mL BSA; 2 nM DNA or 3 nM RNA; room temperature (stated for competition). As to conditions: protein: recombinant; tags: N-terminal His6, thrombin cleaved; label: 3' fluorescein; hairpin. A general note: Polarisation of emitted light reports the rotation of a fluorescent probe.
For the molecule GGUUAUCAUGCGGGCGAAAGUCUGUACCUCUGGCC (structured_RNA) [Loop B, P1(5bp)], the Kd stood at 12.8 ± 1.8 nM.
Regarding GGUCUUAUCAUGCGGGCGAAAGUCUGUAUGAUGGGACC (structured_RNA) [Loop B, Fully Paired], the Kd was found to be 15 ± 2 nM.

The data set is the same for the next values; noted with them: protein: recombinant; tags: N-terminal His6, thrombin cleaved; label: FAM on one strand; blunt.
Consider B17, for which the Kd is 54 ± 9 nM.

A further data set addresses T1, Sox2-HMG. Put plainly: competition; unlabeled RNA vs labeled FGF4 DNA; 10 mM Tris-HEPES pH 7.5, 135 mM KCl, 15 mM NaCl, 1 mM DTT, 8% Ficoll, 0.05% NP-40, 0.1 mg/mL BSA; 2 nM DNA or 3 nM RNA; room temperature (stated for competition). As to conditions: protein: recombinant; tags: N-terminal His6, thrombin cleaved; label: 3' fluorescein; hairpin.
For the molecule GGUCUUAAGGUGCGGGCGAAAGUCUGUACCUCUGGGACC (structured_RNA) [Loop B, Bulge(0+1)], the Ki came out at 13 ± 4 nM.
